Measurements taken from US20230063116A1 (Regeneron, published 2023).
Like-named read-outs stand apart in the source and are kept apart here.

T1: VEGF110 (hVEGF110, aa 207-318) (human, UniProt P15692 207-318)
T1 sequence (looked up): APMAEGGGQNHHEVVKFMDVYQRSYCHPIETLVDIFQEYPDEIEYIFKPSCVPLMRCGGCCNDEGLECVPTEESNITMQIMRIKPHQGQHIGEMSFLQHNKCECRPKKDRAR

B1: REGN7080 (VEGF minitrap-G4Sx6-VEGF minitrap mmH) (receptor)
chain: SDTGRPFVEMYSEIPEIIHMTEGRELVIPCRVTSPNITVTLKKFPLDTLIPDGKRIIWDSRKGFIISNATYKEIGLLTCEATVNGHLYKTNYLTHRQTNTIIDVVLSPSHGIELSVGEKLVLNCTARTELNVGIDFNWEYPSSKHQHKKLVNRDLKTQSGSEMKKFLSTLTIDGVTRSDQGLYTCAASSGLMTKKNSTFVRVHEKGGGGSGGGGSGGGGSGGGGSGGGGSGGGGSSDTGRPFVEMYSEIPEIIHMTEGRELVIPCRVTSPNITVTLKKFPLDTLIPDGKRIIWDSRKGFIISNATYKEIGLLTCEATVNGHLYKTNYLTHRQTNTIIDVVLSPSHGIELSVGEKLVLNCTARTELNVGIDFNWEYPSSKHQHKKLVNRDLKTQSGSEMKKFLSTLTIDGVTRSDQGLYTCAASSGLMTKKNSTFVRVHEKEQKLISEEDLGGEQKLISEEDLHHHHHH
notes: Monomeric single chain; also called REGN7080 (G4Sx6 linker); single chain mini-trap with (G4S)6 linker and C-terminal mmH tag
B2: REGN112 (receptor)
chain: SDTGRPFVEMYSEIPEIIHMTEGRELVIPCRVTSPNITVTLKKFPLDTLIPDGKRIIWDSRKGFIISNATYKEIGLLTCEATVNGHLYKTNYLTHRQTNTIIDVVLSPSHGIELSVGEKLVLNCTARTELNVGIDFNWEYPSSKHQHKKLVNRDLKTQSGSEMKKFLSTLTIDGVTRSDQGLYTCAASSGLMTKKNSTFVRVHEKDKTHTCPPC
B3: REGN7483^F (homodimer mini-trap, FabRICATOR cleaved from aflibercept) (receptor)
chain: SDTGRPFVEMYSEIPEIIHMTEGRELVIPCRVTSPNITVTLKKFPLDTLIPDGKRIIWDSRKGFIISNATYKEIGLLTCEATVNGHLYKTNYLTHRQTNTIIDVVLSPSHGIELSVGEKLVLNCTARTELNVGIDFNWEYPSSKHQHKKLVNRDLKTQSGSEMKKFLSTLTIDGVTRSDQGLYTCAASSGLMTKKNSTFVRVHEKDKTHTCPPCPAPELLG
modifications: here or on the partner: N-linked glycans at N36, N68, N123, N196 (Table C)
B4: REGN7483^R (homodimer mini-trap, recombinant) (receptor)
chain: B3 chain
modifications: here or on the partner: N-linked glycans at N36, N68, N123, N196 (Table C)
B5: human VEGF165 (REGN110) (ligand)
chain: APMAEGGGQNHHEVVKFMDVYQRSYCHPIETLVDIFQEYPDEIEYIFKPSCVPLMRCGGCCNDEGLECVPTEESNITMQIMRIKPHQGQHIGEMSFLQHNKCECRPKKDRARQENPCGPCSERRKHLFVQDPQTCKCSCKNTDSRCKARQLELNERTCRCDKPRR
notes: It is treated here as the same molecule; also called hVEGF165; hVEGF165(M1-R191)
B6: REGN3, full-length VEGF Trap (aflibercept) (Fc fusion, human, UniProt P17948 129-231, looked up, not shown: a dimerising Fc or GST)
chain: SDTGRPFVEMYSEIPEIIHMTEGRELVIPCRVTSPNITVTLKKFPLDTLIPDGKRIIWDSRKGFIISNATYKEIGLLTCEATVNGHLYKTNYLTHRQTNTIIDVVLSPSHGIELSVGEKLVLNCTARTELNVGIDFNWEYPSSKHQHKKLVNRDLKTQSGSEMKKFLSTLTIDGVTRSDQGLYTCAASSGLMTKKNSTFVRVHEK
notes: range 129-231;range 226-327; also called Eylea; VEFGR1d2-VEGFR2d3 VEGF Trap
B7: VEGF121 (hVEGF121, aa 207-327) (ligand)
chain: APMAEGGGQNHHEVVKFMDVYQRSYCHPIETLVDIFQEYPDEIEYIFKPSCVPLMRCGGCCNDEGLECVPTEESNITMQIMRIKPHQGQHIGEMSFLQHNKCECRPKKDRARQEKCDKPRR

How the values were obtained:
[1] = target: chimeric VEGFR1 receptors on HEK293/D9/Flt-IL18Rα/Flt-IL18Rβ clone V3H9 cells (UniProt P17948); test: cell-based or functional assay
Sequence of chimeric VEGFR1 receptors on HEK293/D9/Flt-IL18Rα/Flt-IL18Rβ clone V3H9 cells (UniProt P17948) (P17948 other isoform, or with tags, fused parts or gaps mutant limits assumed, chain 1 of 2): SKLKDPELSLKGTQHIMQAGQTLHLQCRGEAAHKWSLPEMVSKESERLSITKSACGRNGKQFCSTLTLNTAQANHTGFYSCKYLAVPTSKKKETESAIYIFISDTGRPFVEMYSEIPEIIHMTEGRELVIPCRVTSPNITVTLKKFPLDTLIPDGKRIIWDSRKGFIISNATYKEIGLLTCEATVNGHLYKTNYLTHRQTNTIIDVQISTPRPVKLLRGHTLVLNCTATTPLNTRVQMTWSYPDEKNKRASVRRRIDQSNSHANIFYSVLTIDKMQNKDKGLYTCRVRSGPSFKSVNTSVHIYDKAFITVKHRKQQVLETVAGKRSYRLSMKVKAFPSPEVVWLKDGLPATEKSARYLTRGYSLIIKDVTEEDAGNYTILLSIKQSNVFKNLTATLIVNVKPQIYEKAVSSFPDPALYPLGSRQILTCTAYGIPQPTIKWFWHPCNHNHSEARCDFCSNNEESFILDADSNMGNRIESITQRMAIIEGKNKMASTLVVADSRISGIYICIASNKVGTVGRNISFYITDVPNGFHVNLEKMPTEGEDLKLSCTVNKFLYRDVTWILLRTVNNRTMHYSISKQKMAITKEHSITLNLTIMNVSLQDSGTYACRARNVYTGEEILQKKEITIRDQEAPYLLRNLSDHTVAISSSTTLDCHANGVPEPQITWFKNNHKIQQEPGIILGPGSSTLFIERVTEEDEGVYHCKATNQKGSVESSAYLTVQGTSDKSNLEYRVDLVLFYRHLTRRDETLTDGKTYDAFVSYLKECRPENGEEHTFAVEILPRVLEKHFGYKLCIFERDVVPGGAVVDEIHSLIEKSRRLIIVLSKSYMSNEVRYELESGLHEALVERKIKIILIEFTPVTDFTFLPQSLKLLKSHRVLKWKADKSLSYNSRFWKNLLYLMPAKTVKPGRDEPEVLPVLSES
Sequence of chimeric VEGFR1 receptors on HEK293/D9/Flt-IL18Rα/Flt-IL18Rβ clone V3H9 cells (UniProt P17948) (P17948 other isoform, or with tags, fused parts or gaps mutant limits assumed, chain 2 of 2): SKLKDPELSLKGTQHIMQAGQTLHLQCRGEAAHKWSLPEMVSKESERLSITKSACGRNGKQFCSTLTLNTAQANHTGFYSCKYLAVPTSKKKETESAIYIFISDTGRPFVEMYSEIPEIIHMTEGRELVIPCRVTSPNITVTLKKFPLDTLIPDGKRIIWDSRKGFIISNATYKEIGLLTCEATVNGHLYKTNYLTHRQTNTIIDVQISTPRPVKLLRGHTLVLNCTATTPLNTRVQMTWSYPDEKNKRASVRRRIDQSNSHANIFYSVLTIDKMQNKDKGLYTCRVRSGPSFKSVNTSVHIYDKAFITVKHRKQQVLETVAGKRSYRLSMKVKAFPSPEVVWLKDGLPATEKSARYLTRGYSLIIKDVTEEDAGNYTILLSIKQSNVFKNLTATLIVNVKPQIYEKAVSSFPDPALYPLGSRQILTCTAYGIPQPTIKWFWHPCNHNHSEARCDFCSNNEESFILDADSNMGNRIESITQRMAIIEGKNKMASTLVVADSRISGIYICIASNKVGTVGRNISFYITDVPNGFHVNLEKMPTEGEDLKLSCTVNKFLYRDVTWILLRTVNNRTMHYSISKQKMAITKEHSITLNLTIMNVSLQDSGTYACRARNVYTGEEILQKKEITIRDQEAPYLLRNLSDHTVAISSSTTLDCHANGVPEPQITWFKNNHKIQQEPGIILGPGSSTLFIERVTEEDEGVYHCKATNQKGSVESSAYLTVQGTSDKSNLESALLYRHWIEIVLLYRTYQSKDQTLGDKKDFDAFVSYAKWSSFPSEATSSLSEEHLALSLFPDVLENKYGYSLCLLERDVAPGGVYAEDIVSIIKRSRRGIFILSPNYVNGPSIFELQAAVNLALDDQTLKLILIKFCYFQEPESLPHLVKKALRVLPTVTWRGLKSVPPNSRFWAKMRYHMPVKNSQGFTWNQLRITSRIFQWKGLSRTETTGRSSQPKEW

[2] = target: chimeric VEGFR1 receptors on HEK293/D9/Flt-IL18Rα/Flt-IL18Rβ clone V3H9 cells (UniProt P17948); test: cell-based or functional assay; remark: listed apart in the source
[3] = target: chimeric VEGFR1 receptors on HEK293/D9/Flt-IL18Rα/Flt-IL18Rβ clone V3H9 cells (UniProt P17948); test: cell-based or functional assay; remark: listed apart in the source
human VEGF165 (REGN110) [4] = target: B5; test: SPR, Biacore, 25 C; trap captured on anti-VEGFR1 mAb surface, hVEGF165 injected
Method: (§1) Experimental Procedure. Equilibrium dissociation constants (KD values) for human VEGF₁₆₅ binding to various purified VEGF mini-trap constructs were determined using a real-time surface plasmon resonance biosensor using a Biacore 3000 instrument. All binding studies were performed in 10 mM HEPES, 150 mM NaCl, 3 mM EDTA, and 0.05% v/v Surfactant Tween-20, pH 7.4 (HBS-ET) running buffer at 25° C. The Biacore sensor surface was first derivatized by amine coupling with a monoclonal mouse anti-VEGFR1 antibody to capture VEGF mini-trap constructs. Binding studies were performed on the human VEGF reagent, human VEGF₁₆₅ (human VEGF₁₆₅; SEQ ID NO: 31). Different concentrations of VEGF₁₆₅ reagent, prepared in HBS-ET running buffer (2 nM — 62.5 pM; 2-fold serial dilution for human VEGF₁₆₅), were injected over an anti-VEGFR1-captured VEGF mini-trap construct surface for 1.8 minutes at a flow rate of 90 μL/minute, while the dissociation of VEGF mini-trap constructs bound VEGF₁₆₅ reagent was monitored for 60 minutes in HBS-ET running buffer. Kinetic association (kₐ) and dissociation (kd) rate constants were determined by fitting the real-time sensorgrams to a 1:1 binding model using Scrubber 2.0c curve fitting software. Binding dissociation equilibrium constants (KD) and dissociative half-lives (t½) were calculated from the kinetic rate constants as: […]

[5] = target: B7; test: cell-based or functional assay
[6] = target: T1, VEGF110 (hVEGF110, aa 207-318); test: cell-based or functional assay
human VEGF165 (REGN110) [7] = target: B5; test: SPR, Biacore, 25 C; trap captured on anti-VEGFR1 mAb surface, hVEGF165 injected; 1:1 fit
Method: as §1

human VEGF165 (REGN110) [8] = target: B5; test: SPR, Biacore 3000, 25 C; trap captured on anti-VEGFR1 mAb surface, hVEGF165 injected; 1:1 fit
human VEGF165 (REGN110) [9] = target: B5; test: SPR, Biacore 3000, 25 C; trap captured on anti-VEGFR1 mAb surface, hVEGF165 injected
human VEGF165 (REGN110) [10] = target: B5; test: cell-based or functional assay
[11] = target: T1, VEGF110 (hVEGF110, aa 207-318); test: cell-based or functional assay; remark: listed apart in the source
[12] = target: B7; test: cell-based or functional assay
[13] = target: VEGF121 (hVEGF121, aa 207-327) (human), P15692; test: cell-based or functional assay
[14] = target: T2, chimeric VEGFR1 receptors on HEK293/D9/Flt-IL18Rα/Flt-IL18Rβ clone V3H9 cells (UniProt P17948 27-758; Q13478 351-541; P17948 27-758; O95256 378-599, limits assumed); test: cell-based or functional assay
T2 sequence (P17948 other isoform, or with tags, fused parts or gaps mutant limits assumed, chain 1 of 2): as the sequence (P17948 other isoform, or with tags, fused parts or gaps mutant limits assumed, chain 1 of 2) above
T2 sequence (P17948 other isoform, or with tags, fused parts or gaps mutant limits assumed, chain 2 of 2): as the sequence (P17948 other isoform, or with tags, fused parts or gaps mutant limits assumed, chain 2 of 2) above

[15] = target: B6; test: SPR, Biacore, 25 C; trap captured on anti-VEGFR1 mAb surface, hVEGF165 injected; 1:1 fit
Method: as §1

[16] = target: B6; test: SPR, Biacore 3000, 25 C; trap captured on anti-VEGFR1 mAb surface, hVEGF165 injected; 1:1 fit
human VEGF165 (REGN110) [17] = target: B5; test: cell-based or functional assay; remark: listed apart in the source
[18] = target: B7; test: cell-based or functional assay
[19] = target: T1, VEGF110 (hVEGF110, aa 207-318); test: cell-based or functional assay; remark: listed apart in the source
human VEGF165 (REGN110) [20] = target: B5; test: cell-based or functional assay; remark: listed apart in the source
[21] = target: B7; test: cell-based or functional assay
[22] = target: T1, VEGF110 (hVEGF110, aa 207-318); test: cell-based or functional assay; remark: listed apart in the source
[23] = target: T2, chimeric VEGFR1 receptors on …; test: cell-based or functional assay; remark: listed apart in the source
[24] = target: T2, chimeric VEGFR1 receptors on …; test: cell-based or functional assay; remark: listed apart in the source

Molecule: VEGF110 (hVEGF110, aa 207-318) (from UniProt P15692 207-318) (ligand)
- EC50 (M), activation of HEK293/D9/Flt-IL18Ra/Flt-IL18Rb (luciferase) [1]: 1.51e-11 M
- EC50 (M), activation of HEK293/D9/Flt-IL18Ra/Flt-IL18Rb (luciferase) [2]: 2.4e-11 M
- EC50 (M), activation of HEK293/D9/Flt-IL18Ra/Flt-IL18Rb (luciferase) [3]: 1.14e-11 M

Molecule: B1
- 2nM hVEGF165 Bound (human VEGF165 (REGN110) [4]): 36 RU
- IC50 (M), inhibition of VEGFR1 signaling (luciferase), 20 pM VEGF121 [5]: 1.66e-10 M
- IC50 (M), inhibition of VEGFR1 signaling (luciferase), 20 pM VEGF110 [6]: 1.61e-10 M
- Kd (human VEGF165 (REGN110) [7]): 0.0715 nM
- koff (human VEGF165 (REGN110) [7]): 0.000387 s⁻¹
- kon (human VEGF165 (REGN110) [7]): 5.41e+06 M⁻¹ s⁻¹
- t1/2 (dissociative half-life) (human VEGF165 (REGN110) [7]): 29.8 min
- Kd (human VEGF165 (REGN110) [8]): 0.0715 nM
- koff (human VEGF165 (REGN110) [8]): 0.000387 s⁻¹
- kon (human VEGF165 (REGN110) [8]): 5.41e+06 M⁻¹ s⁻¹
- t½ (dissociative half-life) (human VEGF165 (REGN110) [8]): 29.8 min
- 100 nM hVEGF165 Bound (human VEGF165 (REGN110) [9]): 36 RU

Molecule: B2
- IC50 (read off the curve); VEGFR1 reporter luciferase with 40 pM VEGF165 constant (human VEGF165 (REGN110) [10]): ~2e-10 M
- IC50 (read off the curve); VEGFR1 reporter luciferase with 20 pM VEGF110 constant [11]: ~1e-10 M
- IC50 (read off the curve); VEGFR1 reporter luciferase with 40 pM VEGF121 constant [12]: ~1e-10 M

Molecule: B3
- IC50 (M), inhibition of VEGFR1 signaling (luciferase), 20 pM VEGF121 [13]: 9.27e-12 M

Molecule: B4
- IC50 (M), inhibition of VEGFR1 signaling (luciferase), 20 pM VEGF121 [13]: 8.79e-12 M

Molecule: B5
- EC50 (M), activation of HEK293/D9/Flt-IL18Ra/Flt-IL18Rb (luciferase) [14]: 4.3e-11 M
- Kd [15]: ≤ 1.27 pM
- Kd [16]: ≤ 1.79 pM

Molecule: B6
- IC50 (M), inhibition of VEGFR1 signaling (luciferase), 20 pM VEGF165 (human VEGF165 (REGN110) [17]): 2.09e-11 M
- IC50 (M), inhibition of VEGFR1 signaling (luciferase), 20 pM VEGF121 [18]: 1.26e-11 M
- IC50 (M), inhibition of VEGFR1 signaling (luciferase), 20 pM VEGF110 [19]: 1.15e-11 M
- 2nM hVEGF165 Bound (human VEGF165 (REGN110) [4]): 29 RU
- IC50 (M), inhibition of VEGFR1 signaling (luciferase), 20 pM VEGF165 (human VEGF165 (REGN110) [20]): 1.18e-11 M
- IC50 (M), inhibition of VEGFR1 signaling (luciferase), 20 pM VEGF121 [5]: 8.94e-12 M
- IC50 (M), inhibition of VEGFR1 signaling (luciferase), 20 pM VEGF110 [6]: 1.53e-11 M
- t1/2 (dissociative half-life) (human VEGF165 (REGN110) [7]): ≥ 1160 min
- t½ (dissociative half-life) (human VEGF165 (REGN110) [8]): ≥ 1160 min
- 100 nM hVEGF165 Bound (human VEGF165 (REGN110) [9]): 21 RU
- IC50 (M), inhibition of VEGFR1 signaling (luciferase), 20 pM VEGF121 [21]: 9.64e-12 M
- IC50 (M), inhibition of VEGFR1 signaling (luciferase), 20 pM VEGF110 [22]: 1.53e-11 M

Molecule: B7
- EC50 (M), activation of HEK293/D9/Flt-IL18Ra/Flt-IL18Rb (luciferase) [23]: 2.12e-11 M
- EC50 (M), activation of HEK293/D9/Flt-IL18Ra/Flt-IL18Rb (luciferase) [24]: 2.56e-11 M
- EC50 (M), activation of HEK293/D9/Flt-IL18Ra/Flt-IL18Rb (luciferase) [14]: 4.4e-11 M
